The values that follow come from US20040002144A1.

Residue numbers refer to the chain shown, from its start. Names may count otherwise.

First the molecules themselves.
B1: S2Y mutant MTG (Ser2 replaced with Tyr, in Met type MTG), P81453 79-407 (enzyme)
chain: MDYDDRVTPPAEPLDRMPDPYRPSYGRAETVVNNYIRKWQQVYSHRDGRKQQMTEEQREWLSYGCVGVTWVNSGQYPTNRLAFASFDEDRFKNELKNGRPRSGETRAEFEGRVAKESFDEEKGFQRAREVASVMNRALENAHDESAYLDNLKKELANGNDALRNEDARSPFYSALRNTPSFKERNGGNHDPSRMKAVIYSKHFWSGQDRSSSADKRKYGDPDAFRPAPGTGLVDMSRDRNIPRSPTSPGEGFVNFDYGWFGAQTEADADKTVWTHGNHYHAPNGSLGAMHVYESKFRNWSEGYSDFDRGAYVITFIPKSWNTAPDKVKQGWP
B2: S2R mutant MTG (Ser2 replaced with Arg, in Met type MTG), P81453 79-407 (enzyme)
chain: B1 chain with Y3R
B3: S2D mutant MTG (Ser2 replaced with Asp, in Met type MTG), P81453 79-407 (enzyme)
chain: B1 chain with Y3D
B4: transglutaminase derived from Streptoverticillium mobaraense (MTG), wild type, P81453 77-407 (enzyme)
chain: DSDDRVTPPAEPLDRMPDPYRPSYGRAETVVNNYIRKWQQVYSHRDGRKQQMTEEQREWLSYGCVGVTWVNSGQYPTNRLAFASFDEDRFKNELKNGRPRSGETRAEFEGRVAKESFDEEKGFQRAREVASVMNRALENAHDESAYLDNLKKELANGNDALRNEDARSPFYSALRNTPSFKERNGGNHDPSRMKAVIYSKHFWSGQDRSSSADKRKYGDPDAFRPAPGTGLVDMSRDRNIPRSPTSPGEGFVNFDYGWFGAQTEADADKTVWTHGNHYHAPNGSLGAMHVYESKFRNWSEGYSDFDRGAYVITFIPKSWNTAPDKVKQGWP
B5: Ser-type MTG (mutant in which Asp1 has been removed, starts with Ser2), P81453 78-407 (enzyme)
chain: SDDRVTPPAEPLDRMPDPYRPSYGRAETVVNNYIRKWQQVYSHRDGRKQQMTEEQREWLSYGCVGVTWVNSGQYPTNRLAFASFDEDRFKNELKNGRPRSGETRAEFEGRVAKESFDEEKGFQRAREVASVMNRALENAHDESAYLDNLKKELANGNDALRNEDARSPFYSALRNTPSFKERNGGNHDPSRMKAVIYSKHFWSGQDRSSSADKRKYGDPDAFRPAPGTGLVDMSRDRNIPRSPTSPGEGFVNFDYGWFGAQTEADADKTVWTHGNHYHAPNGSLGAMHVYESKFRNWSEGYSDFDRGAYVITFIPKSWNTAPDKVKQGWP

For the assay, the target named is casein. As to the kind of experiment: cell-based or functional assay.
B1: the time required for the gelation of casein came out at 100 min. Regarding B2, the time required for the gelation of casein is 85 min.

Regarding B3, the time required for the gelation of casein was 95 min. In the case of B4, the time required for the gelation of casein came out at 90 min. The value for B5 was 85 min.
